Test results as given in paper PMC4230323 (Biochemistry, 2014).
Where two headings read alike, the source gives them in different places.

Experiments:
[1] = format: biochemical; settings: read-out: Km(ATP); 100 μM SPS
[2] = format: biochemical; settings: read-out: Km(SPS); Src peptide substrate

B1: Lyn^SH2eng: Lyn Q509E/Q510E/Q511I three-domain construct with enhanced SH2 engagement (protein)
chain: QGDIVVALYPYDGIHPDDLSFKKGEKMKVLEEHGEWWKAKSLLTKKEGFIPSNYVAKLNTLETEEWFFKDITRKDAERQLLAPGNSAGAFLIRESETLKGSFSLSVRDFDPVHGDVIKHYKIRSLDNGGYYISPRITFPCISDMIKHYQKQADGLCRRLEKACISPKPQKPWDKDAWEIPRESIKLVKRLGAGQFGEVWMGYYNNSTKVAVKTLKPGTMSVQAFLEEANLMKTLQHDKLVRLYAVVTREEPIYIITEYMAKGSLLDFLKSDEGGKVLLPKLIDFSAQIAEGMAYIERKNYIHRDLRAANVLVSESLMCKIADFGLARVIEDNEYTAREGAKFPIKWTAPEAINFGCFTIKSDVWSFGILLYEIVTYGKIPYPGRTNADVMTALSQGYRMPRVENCPDELYDIMKMCWKEKAEERPTFDYLQSVLDDFYTATEGQYEEIP
modifications: left off: His tag, N-terminal, kept
Km [1]: 54 ± 5 µM | Km [2]: 60 ± 10 µM
